As a reminder, the Kd is the concentration at which binding is half-saturated.

Kd data for twelve molecules are collected here from patent publication US20230399362A1 (B A I LABORATORIES, published 2023).

B1: Compound 9 (peptide)
peptide: cyclo([dR]L[dW]W[dT]EP)
SMILES: CC(C)C[C@@H]1NC(=O)[C@@H](CCCNC(=N)N)NC(=O)[C@@H]2CCCN2C(=O)[C@H](CCC(=O)O)NC(=O)[C@@H]([C@H](C)O)NC(=O)[C@H](Cc2c[nH]c3ccccc23)NC(=O)[C@@H](Cc2c[nH]c3ccccc23)NC1=O
B2: Compound 1 (peptide)
peptide: cyclo([dR][dF][dV]YEP)
SMILES: CC(C)[C@H]1NC(=O)[C@@H](Cc2ccccc2)NC(=O)[C@@H](CCCNC(=N)N)NC(=O)[C@@H]2CCCN2C(=O)[C@H](CCC(=O)O)NC(=O)[C@H](Cc2ccc(O)cc2)NC1=O
B3: Compound 5 (peptide)
peptide: cyclo(WVRE[dP][dP])
SMILES: CC(C)[C@@H]1NC(=O)[C@H](Cc2c[nH]c3ccccc23)NC(=O)[C@H]2CCCN2C(=O)[C@H]2CCCN2C(=O)[C@H](CCC(=O)O)NC(=O)[C@H](CCCNC(=N)N)NC1=O
B4: Compound 7 (peptide)
peptide: cyclo(TR[dF]P[dL][dP])
SMILES: CC(C)C[C@H]1NC(=O)[C@@H]2CCCN2C(=O)[C@@H](Cc2ccccc2)NC(=O)[C@H](CCCNC(=N)N)NC(=O)[C@H]([C@@H](C)O)NC(=O)[C@H]2CCCN2C1=O
B5: Compound 6 (peptide)
peptide: cyclo(YRE[dT][dV][dP])
SMILES: CC(C)[C@H]1NC(=O)[C@@H]([C@H](C)O)NC(=O)[C@H](CCC(=O)O)NC(=O)[C@H](CCCNC(=N)N)NC(=O)[C@H](Cc2ccc(O)cc2)NC(=O)[C@H]2CCCN2C1=O
B6: Compound 3 (peptide)
peptide: cyclo(E[dT][dV]W[dP][dP])
SMILES: CC(C)[C@H]1NC(=O)[C@@H]([C@H](C)O)NC(=O)[C@H](CCC(=O)O)NC(=O)[C@H]2CCCN2C(=O)[C@H]2CCCN2C(=O)[C@H](Cc2c[nH]c3ccccc23)NC1=O
B7: Compound 10 (peptide)
peptide: cyclo(RDYC[dP][dW][dP])
SMILES: N=C(N)NCCC[C@@H]1NC(=O)[C@H]2CCCN2C(=O)[C@@H](Cc2c[nH]c3ccccc23)NC(=O)[C@H]2CCCN2C(=O)[C@H](CS)NC(=O)[C@H](Cc2ccc(O)cc2)NC(=O)[C@H](CC(=O)O)NC1=O
B8: Compound 4 (peptide)
peptide: cyclo(RE[dV]W[dP][dP])
SMILES: CC(C)[C@H]1NC(=O)[C@H](CCC(=O)O)NC(=O)[C@H](CCCNC(=N)N)NC(=O)[C@H]2CCCN2C(=O)[C@H]2CCCN2C(=O)[C@H](Cc2c[nH]c3ccccc23)NC1=O
B9: Compound 2 (peptide)
peptide: cyclo(RT[dV]E[dF][dP])
SMILES: CC(C)[C@H]1NC(=O)[C@H]([C@@H](C)O)NC(=O)[C@H](CCCNC(=N)N)NC(=O)[C@H]2CCCN2C(=O)[C@@H](Cc2ccccc2)NC(=O)[C@H](CCC(=O)O)NC1=O
B10: Compound 11 (peptide)
peptide: cyclo(VP[dL][dW][dV]LRP)
SMILES: CC(C)C[C@@H]1NC(=O)[C@@H](C(C)C)NC(=O)[C@@H](Cc2c[nH]c3ccccc23)NC(=O)[C@@H](CC(C)C)NC(=O)[C@@H]2CCCN2C(=O)[C@H](C(C)C)NC(=O)[C@@H]2CCCN2C(=O)[C@H](CCCNC(=N)N)NC1=O
B11: Compound 8 (peptide)
peptide: cyclo([dL]REPWMP)
SMILES: CSCC[C@@H]1NC(=O)[C@H](Cc2c[nH]c3ccccc23)NC(=O)[C@@H]2CCCN2C(=O)[C@H](CCC(=O)O)NC(=O)[C@H](CCCNC(=N)N)NC(=O)[C@@H](CC(C)C)NC(=O)[C@@H]2CCCN2C1=O
B12: Tralokinumab (antibody, V domains shown)
VH: QVQLVQSGAEVKKPGASVKVSCKASGYTFTNYGLSWVRQAPGQGLEWMGWISANNGDTNYGQEFQGRVTMTTDTSTSTAYMELRSLRSDDTAVYYCARDSSSSWARWFFDLWGRGTLVTVSS
VL: SYVLTQPPSVSVAPGKTARITCGGNIIGSKLVHWYQQKPGQAPVLVIYDDGDRPSGIPERFSGSNSGNTATLTISRVEAGDEADYYCQVWDTGSDPVVFGGGTKLTVL

Square brackets hold non-standard residues; d marks the D form.

T1 sequence (P35225 35-146 limits assumed): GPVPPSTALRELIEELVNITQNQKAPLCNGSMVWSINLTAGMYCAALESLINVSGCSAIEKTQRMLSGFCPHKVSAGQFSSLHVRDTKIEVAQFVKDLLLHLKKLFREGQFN

The first experiment has as its target T1, Human IL-13 with an Fc-tag (human, UniProt P35225 35-146, limits assumed).
T1 construct: Immobilized on CM5 chip (about 5000 RU); also called Interleukin-13; not shown: Fc-tag
The experiment can be described thus: SPR, BIAcore 8K plus, human IL-13-Fc immobilized on CM5, peptide as analyte, 25 C.
Turning to B1, the Kd was determined as 337 µM.
The same measure, in the same setting: the figure for B2 is 16 µM.
For the molecule B3, the Kd was 47.1 µM.
With B4, the Kd was 85.1 µM.
In the case of B5, the Kd stood at 55.4 µM.
In the case of B6, the Kd was 22.8 µM.
Consider B7, for which the Kd amounted to 368 µM.
As for B8, the Kd came to 26.2 µM.
On to B9, for which the Kd was 17.4 µM.
Same read-out and setting: the value for B10 was 622 µM; that for B11 was 99.5 µM.

In the next experiment the target is T1, Human IL-13 with an Fc-tag. The experiment can be described thus: SPR, BIAcore 8K plus, human IL-13-Fc immobilized on CM5, positive control.
Regarding B12, the Kd was 0.000309 µM.
